PMC2807035
Values belong to the molecule of their own block, whether it stands above or below them.

Legend:
[1] = biological target: triple-helical collagen peptide GPC-(GPP)5-GPRGQOGVNleGFO-(GPP)5-GPC-NH2; assay: ELISA; solid-phase binding assay: DS2-Fc added to 96-well plates coated with triple-helical collagen peptides at 10 μg/ml
[2] = biological target: triple-helical collagen peptide Ac-GPOGPOGPOGPRGQOGVNleGFOGPOGPOG-NH2; assay: crystal structure; complex formed at molar peptide:protein ratio ~1.5:1; hanging drop vapor diffusion at room temperature, 0.1 M PCB pH 7.0, 25% PEG1500; 1.6 Å, molecular replacement
[3] = biological target: triple-helical collagen peptide Ac-GPOGPOGPOGPRGQOGVNleGFOGPOGPOG-NH2; assay: SEC; analytical size exclusion chromatography, 24 ml Superdex 75, 20 mM MES, 100 mM NaCl pH 6.5; 16 nmol DS domain in PBS alone or mixed with varying amounts of collagen peptide (two-fold molar excess for the complex), incubated 30 min in 0.5 ml

fold increase of binding against the methionine peptide [1]: 10 fold
Molecule: DS2-Fc (Fc-tagged DS domain of DDR2) (Fc fusion)

stoichiometry N [2]: 3
Molecule: triple-helical collagen peptide Ac-GPOGPOGPOGPRGQOGVNleGFOGPOGPOG-NH2

stoichiometry N [3]: 1
B1: DS domain of human DDR2 (His-tagged, residues 26-190) (domain or fragment)
chain: NPAICRYPLGMSGGQIPDEDITASSQWSESTAAKYGRLDSEEGDGAWCPEIPVEPDDLKEFLQIDLHTLHFITLVGTQGRHAGGHGIEFAPMYKINYSRDGTRWISWRNRHGKQVLDGNSNPYDIFLKDLEPPIVARFVRFIPVTDHSMNVCMRVELYGCVWLDG
